Reference: publication PMC10721474 (Plant Communications, 2023)
One block for each molecule: values may come before it.

Key:
PIN1 = molecular target: T1, PIN1 (Arabidopsis thaliana, UniProt Q9C6B8); test: [3H]IAA efflux assay in HEK293F cells; format: cell-based
T1 sequence (Q9C6B8 1-622): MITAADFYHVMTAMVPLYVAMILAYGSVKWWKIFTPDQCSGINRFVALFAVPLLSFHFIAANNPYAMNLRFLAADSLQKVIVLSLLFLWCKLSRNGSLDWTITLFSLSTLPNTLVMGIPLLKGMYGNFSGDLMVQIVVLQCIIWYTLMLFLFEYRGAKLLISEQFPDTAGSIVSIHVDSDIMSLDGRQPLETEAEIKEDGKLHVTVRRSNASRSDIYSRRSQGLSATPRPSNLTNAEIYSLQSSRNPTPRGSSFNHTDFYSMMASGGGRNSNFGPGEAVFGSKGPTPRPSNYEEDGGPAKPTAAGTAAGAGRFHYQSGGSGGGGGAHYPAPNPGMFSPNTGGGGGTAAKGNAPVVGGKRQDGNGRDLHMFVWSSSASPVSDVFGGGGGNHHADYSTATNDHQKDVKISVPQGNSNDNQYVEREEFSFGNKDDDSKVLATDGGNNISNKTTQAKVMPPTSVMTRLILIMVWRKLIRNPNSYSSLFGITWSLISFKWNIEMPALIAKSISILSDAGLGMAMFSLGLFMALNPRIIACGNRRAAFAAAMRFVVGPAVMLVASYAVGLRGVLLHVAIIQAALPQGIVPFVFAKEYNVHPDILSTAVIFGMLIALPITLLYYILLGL
T1 sequence (Q9FG74 1-498 partner): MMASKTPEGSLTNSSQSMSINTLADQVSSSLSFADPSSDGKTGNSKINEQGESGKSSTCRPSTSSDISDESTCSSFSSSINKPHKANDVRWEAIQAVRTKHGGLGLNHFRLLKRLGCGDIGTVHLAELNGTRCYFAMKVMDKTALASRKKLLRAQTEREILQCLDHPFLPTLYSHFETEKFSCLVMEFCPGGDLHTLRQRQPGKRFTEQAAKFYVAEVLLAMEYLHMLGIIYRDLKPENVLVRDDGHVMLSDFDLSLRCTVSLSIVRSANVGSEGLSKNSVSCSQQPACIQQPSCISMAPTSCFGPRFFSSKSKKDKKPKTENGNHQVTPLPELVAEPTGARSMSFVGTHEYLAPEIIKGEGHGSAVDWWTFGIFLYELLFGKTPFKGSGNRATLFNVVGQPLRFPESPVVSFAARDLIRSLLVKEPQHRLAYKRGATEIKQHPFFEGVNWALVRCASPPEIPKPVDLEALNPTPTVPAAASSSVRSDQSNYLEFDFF

[1] = molecular target: Arabidopsis thaliana PIN-FORMED 1 (PIN1) auxin transporter (Arabidopsis thaliana, UniProt Q9C6B8); test: cryo-EM structure
cryo-EM structure = molecular target: the molecule itself; test: cryo-EM structure

Molecule: O=C(O)Cc1c[nH]c2ccccc12 [IAA, indole-3-acetic acid]
- [3H]IAA efflux assay in HEK293F cells (PIN1): had much lower retention of [^3H]-IAA than cells transfected with the empty vector

- binding result [1]: binds
B1: synthetic nanobody sybody-19 (VHH)
VHH: QVQLVESGGGLVQAGGSLRLSCAASGFPVDITWMEWYRQAPGKEREWVAAIYSSGQSTWYADSVKGRFTISRDNAKNTVYLQMNSLKPEDTAVYYCRVKVGAWYKGQGTQVTVSA

B2: Arabidopsis thaliana PIN-FORMED 1 (PIN1) auxin transporter (natural protein)
chain: MITAADFYHVMTAMVPLYVAMILAYGSVKWWKIFTPDQCSGINRFVALFAVPLLSFHFIAANNPYAMNLRFLAADSLQKVIVLSLLFLWCKLSRNGSLDWTITLFSLSTLPNTLVMGIPLLKGMYGNFSGDLMVQIVVLQCIIWYTLMLFLFEYRGAKLLISEQFPDTAGSIVSIHVDSDIMSLDGRQPLETEAEIKEDGKLHVTVRRSNASRSDIYSRRSQGLSATPRPSNLTNAEIYSLQSSRNPTPRGSSFNHTDFYSMMASGGGRNSNFGPGEAVFGSKGPTPRPSNYEEDGGPAKPTAAGTAAGAGRFHYQSGGSGGGGGAHYPAPNPGMFSPNTGGGGGTAAKGNAPVVGGKRQDGNGRDLHMFVWSSSASPVSDVFGGGGGNHHADYSTATNDHQKDVKISVPQGNSNDNQYVEREEFSFGNKDDDSKVLATDGGNNISNKTTQAKVMPPTSVMTRLILIMVWRKLIRNPNSYSSLFGITWSLISFKWNIEMPALIAKSISILSDAGLGMAMFSLGLFMALNPRIIACGNRRAAFAAAMRFVVGPAVMLVASYAVGLRGVLLHVAIIQAALPQGIVPFVFAKEYNVHPDILSTAVIFGMLIALPITLLYYILLGL
- binding result (cryo-EM structure): binds
